Source: patent publication US12559863B2, “Macrocyclic modulators of disease associated protein misfolding and aggregation” (RESQ BIOTECH, priority 2017, dated 2026)

Legend:
[1] = target: T1, SOD1(A4V) (Homo sapiens, UniProt P00441, A5V); assay: Differential scanning fluorimetry of SOD1(A4V) with SYPRO Orange; format: biochemical; details: 5:1 peptide to protein ratio
T1 construct: polyHis; made in house; host or cells: E. coli Origami 2(DE3)
Experimental: FIGS. 4A-4F: (A) Chemical structure of the selected cyclic pentapeptide SOD1C5-4. (B) Circular dichroism spectra of SOD1(A4V) incubated with/without the selected cyclic pentapeptides SOD1C5-4, AβC5-34 or AβC5-116 at room temperature for 90 d (1:1 and 5:1 indicate cyclic peptide:SOD1(A4V) molar ratios). Representative spectra from n=2 independent experiments are presented. (C) Dynamic light scattering analysis of SOD1(A4V) incubated with/without the selected cyclic pentapeptides at room temperature for 60 d. Representative data from n=2 independent experiments are presented. (D) Thioflavin T (ThT) fluorescence of SOD1(A4V) incubated with/without the selected cyclic pentapeptides at room temperature for 90 d. Representative data from n=2 independent experiments are presented. (E) Filter retardation assay of SOD1(A4V) incubated with/without the selected cyclic pentapeptides at 37° C. for 25 d. Representative images from n=2 independent experiments performed in replica duplicates are presented. (F) Differential scanning fluorimetry analysis of isolated SOD1(A4V) in the presence or absence of the selected cyclic pentapeptide SOD1C5-4 (5:1 peptide to protein ratio) using the conformation-sensitive dye SYPRO Orange. Data corresponding to n=2 independent experiments each one performed in three replicates±s.e.m. are presented.

[2] = target: T2, SOD1(A4V)-GFP (Homo sapiens, UniProt P00441, A5V); assay: Fluorescence of E. coli cells co-expressing SOD1(A4V)-GFP and cyclic peptide; format: cell-based; details: co-expression of cyclic peptide; compared to random cyclic peptides from initial library
T2 construct: polyHis; expressed in transfected cells; host or cells: E. coli Origami 2(DE3) (BL21(DE3) for the FACS screen)
T2 sequence (P00441 whole entry A5V): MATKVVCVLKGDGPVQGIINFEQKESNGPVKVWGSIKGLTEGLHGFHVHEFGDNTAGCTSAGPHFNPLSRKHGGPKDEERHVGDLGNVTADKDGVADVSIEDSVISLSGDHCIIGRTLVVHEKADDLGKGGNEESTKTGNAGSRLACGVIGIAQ
Text: Electrocompetent E. coli BL21(DE3) cells (Novagen, USA) carrying either the expression vector pETSOD1(A4V)-GFP, which produces SOD1(A4V)-GFP under control of the strong bacteriophage T7 promoter, or pETAβ42-GFP, which produces Aβ42-GFP under control of the T7 promoter, were co-transformed with the combined pSICLOPPS-NuX1X2X3-X5 vector library. Approximately 10^8 transformants carrying both the vector library and either pETSOD1(A4V)-GFP or pETAβ42-GFP vectors were harvested, pooled together, and grown in Luria-Bertani (LB) liquid medium containing either 0.005% (pETSOD1(A4F)-GFP) or 0.002% (pETAβ42-GFP) L-arabinose—the inducer of cyclic peptide production—at 37° C. with shaking. When the optical density at 600 nm (OD600) of the bacterial culture was about 0.5, 0.01 (pETSOD1(A4F)-GFP) or 0.1 (pETAβ42-GFP) mM isopropyl-β-D-thiogalactoside (IPTG) was added to the medium to induce overexpression of the reporter. […] The isolated cells were re-grown and screened for additional rounds in an identical manner until the desired enrichment in high-fluorescence clones was achieved.
For SOD1 or SOD1-GFP production, BL21(DE3) (Novagen, USA) or Origami 2(DE3) cells (Novagen, USA) were transformed with the corresponding SOD1- or SOD1-GFP-encoding vector, either with the appropriate pSICLOPPS vector or alone. […]
Bacterial cells corresponding to 1 mL culture with OD600=1 were harvested by centrifugation and re-suspended in 100 μL phosphate-buffered saline (PBS), transferred to a 96-well FLUOTRAC 200 plate (Greiner Bio One International, Austria), and their fluorescence was measured using a TECAN Safire II-Basic plate reader (Tecan, Austria). Excitation was set at 488 nm and emission was measured at 510 nm.

[3] = tested on: HEK293 cells transiently expressing SOD1(A4V)-GFP; assay: SOD1 aggregation and viability measurements in HEK293 cells; format: cell-based, human; details: 5 μM SOD1C5-4; compared to untreated cells
Experimental: Human embryonic kidney (HEK) 293 cells were transfected using a Nucleofector (Amaxa) following the manufacturer's protocol. 6 ug DNA (SOD1 or SOD1(A4V) cloned into the pEGFP-N3 plasmid vector) were used per 2×10^6 cells and 5 μM synthetic SOD1C5-4 was added, where appropriate, before plating. Transfected cells were sorted 18 h later on a FACSAria to isolate GFP-positive clones. […] Collected cells were plated onto a 24-well plate at a density of 50,000 cells/well. Microscopy analysis was performed under an inverted microscope on day 1 and day 5 in culture after sorting. Cell counts are the average number of viable GFP-fluorescing cells of two areas per triplicate of wells of 24-well plates (magnification 20×). Cell counts are presented as percentage of viability of SOD1-overxoressing cell. As aggregate-positive cells are counted the fluorescing inclusion body-positive cells. Again, two areas per triplicate of wells of 24-well plate are averaged (magnification 20×). Aggregate-positive cells are presented as percentage of the total viable GFP-fluorescing cells.

[4] = target: T3, Aβ42 (Homo sapiens, UniProt P05067); assay: Circular dichroism of Aβ42 with cyclic peptide; format: biochemical; details: 50 μM Aβ, 33° C., 30 d
T3 construct: one of the secondary products yields a 42-amino-acid-long peptide (Aβ42); purchased Eurogentec, Belgium; host or cells: chemical synthesis
Experimental: Synthetic Aβ40 and Aβ42 peptides were gently dissolved without vortexing in doubly deionized water to a final concentration of 100 μM. These solutions were then diluted by PBS addition (10 mM, pH 7.33) to achieve a final Aβ concentration of 50 μM.
Appropriate amounts of synthetic cyclic peptides were added to either 40 μM SOD1(A4V) or 50 μM Aβ solutions at the desired cyclic peptide:target protein molar ratio. SOD1(A4V) structural changes were monitored for 90 d at 25° C., under quiescent conditions. Aβ structural changes were monitored for 30 d at 33° C. under quiescent conditions. CD spectra in the range 190-260 nm were recorded on a JASCO J-715 spectropolarimeter (Jasco Co., Japan) using quartz cuvettes with 1 mm path length. Each reported spectrum is the average of three scans at a rate of 100 nm·min^−1 and a resolution of 0.5 nm.

T1 sequence (P00441 whole entry A5V): as above

cyclo-TWSVW (cyclic) [SOD1C5-4]
propensity of SOD1(A4V) to expose hydrophobic surfaces (SYPRO Orange, heat-induced denaturation) [1]: decrease the propensity of SOD1(A4V) to expose hydrophobic surfaces | SOD1(A4V)-GFP fluorescence of E. coli cells [2]: highest levels of cellular SOD1(A4V)-GFP fluorescence | fluorescence of HEK293 cells expressing SOD1(A4V)-GFP [3]: higher fluorescence | inclusions comprising aggregated SOD1(A4V)-GFP [3]: fewer inclusions comprising aggregated SOD1(A4V)-GFP | viability of HEK293 cells expressing SOD1(A4V)-GFP [3]: higher viability | effect on aggregation process of Aβ42 (CD) [4]: did not have any effect
